# Test results as given in the supplement of paper PMC9732359.
# ± gives the uncertainty stated by the source.
# Assay: protein stability index of a GFP-peptide fusion (yeast GPS) (PSI 1-4); higher = more stable; sorted into four equal gates, so the index is relative within each strain
# In short: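 Yeast carrying a pooled library were grown to mid-log phase in leucine-free medium. Each library plasmid expresses Cherry and has a tiled 17-residue yeast protein peptide fused downstream of GFP. Cells were sorted into four equal gates by GFP/Cherry ratio, and plasmids from each gate were PCR-amplified, Illumina-sequenced and assigned to strains by barcode. Summing, across gates, the read frequency times the gate number gave each peptide's protein stability index.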
Sequence,protein stability index (doa10∆),protein stability index (pdr5∆),protein stability index (san1∆),protein stability index (ubr1∆)
TRTVITDWDPQFNAITG [SMC2],2.96 ± 0.099,2.99 ± 0.083,2.67 ± 0.1,2.76 ± 0.098
SEIIDTNTSKQFQKARN [SRB8],2.71 ± 0.12,3.01 ± 0.063,3.16 ± 0.056,2.92 ± 0.095
EFLYPHLNFPNVKFLRI [SNF12],2.21 ± 0.19,2.67 ± 0.27,,3.15 ± 0.1
YRMKGGRVTFIPLNRLS [SMC3],1.46 ± 0.14,1.15 ± 0.099,1.07 ± 0.24,1.36 ± 0.13
LMYQIKKECALLISYGV [SRB4],1.9 ± 0.12,3.09 ± 0.16,2.12 ± 0.19,1.93 ± 0.15
EVSGSIQYKKEYEELKE [SMC1],3.59 ± 0.15,3.15 ± 0.14,3.29 ± 0.089,3.35 ± 0.068
IMFNHARIIRSELLARD [RGR1],1.58 ± 0.11,2.17 ± 0.14,2.62 ± 0.14,2.55 ± 0.086
LHIHLNQILQTEIENYL [YDL116W/NUP84],1.88 ± 0.054,2.15 ± 0.042,2.03 ± 0.075,1.86 ± 0.043
QSDFCLSWCPSRFSPEK [YGL100W/SEH1],3.09 ± 0.11,3.02 ± 0.19,,
MIRLLGSESDDSEGSIK [ECM29],2.67 ± 0.21,,2.54 ± 0.26,3.4 ± 0.25
FAFLNAMFFGNYGSSLQ [AAR2],2.9 ± 0.064,2.5 ± 0.075,2.91 ± 0.072,2.56 ± 0.069
RKIEFPSLRDRRERRLI [RPT3],3.31 ± 0.052,3.34 ± 0.086,2.68 ± 0.066,3.32 ± 0.042
SKGYPIQFLTIGAGVPS [FAS1],1.4 ± 0.032,1.64 ± 0.045,1.34 ± 0.061,1.34 ± 0.036
YVRTEETDGKHGKRRSQ [YMR129W/POM152],1.46 ± 0.041,1.85 ± 0.063,1.57 ± 0.11,2 ± 0.053
VPVTKLGRLVKAGKITT [RPS2],3.13 ± 0.091,3 ± 0.15,3.03 ± 0.11,3.45 ± 0.078
EKVRPTPGEVASKAIVQ [MCD1],3.16 ± 0.14,2.42 ± 0.084,1.55 ± 0.29,2.84 ± 0.25
VQFGLNEETFTVPELEI [ARP9],3.17 ± 0.076,3.02 ± 0.096,2.78 ± 0.11,3.19 ± 0.082
VINIAKAHPNFPIALQW [FAS1],2.82 ± 0.1,2.88 ± 0.086,2.25 ± 0.091,2.23 ± 0.076
TLRTISFKGSPNERKAK [SNF2],3.19 ± 0.17,,2.74 ± 0.15,2.51 ± 0.13
LRQLLKERYTVEDELTE [RRI1],3.04 ± 0.097,2.71 ± 0.15,3.33 ± 0.076,3.51 ± 0.084
QQQTSTFNSKPVRTIVP [SIR4],2.38 ± 0.032,2.77 ± 0.036,2.6 ± 0.039,2.58 ± 0.028
PVTIWLFEQIGIRIKGK [SME1],2.42 ± 0.057,2.28 ± 0.053,2.35 ± 0.066,2.45 ± 0.039
HEFTLSFTYELKQHNQN [BRR2],1.98 ± 0.074,1.97 ± 0.054,2.4 ± 0.08,2.43 ± 0.073
KKRMNSNQERCHDEGND [RRI1],3.24 ± 0.064,3.01 ± 0.068,3.06 ± 0.071,3.13 ± 0.061
LGRLSVRELVEKIDGMD [RPC82],3.08 ± 0.19,3.4 ± 0.26,3.23 ± 0.11,3.3 ± 0.063

Sequence,protein stability index (doa10∆),protein stability index (pdr5∆),protein stability index (san1∆),protein stability index (ubr1∆)
SQLGGNKTVNEAAKPSL [YJL041W/NSP1],3.36 ± 0.11,3.09 ± 0.079,2.32 ± 0.17,3.26 ± 0.07
RLLPINVNKKALGQDTE [MED11],2.84 ± 0.061,2.96 ± 0.062,2.89 ± 0.035,3.16 ± 0.052
EENDLQQKLNTRMQRGH [REC8],3.17 ± 0.12,3.14 ± 0.078,3.2 ± 0.22,3.4 ± 0.048
GKVVKNVLLLDSNGDFN [RRP46],3.35 ± 0.068,3.22 ± 0.058,3.29 ± 0.063,3.27 ± 0.043
QLDKKNELQKFQALWQL [SMC1],,,2.58 ± 0.1,
LQLELTIEDIAVAITRA [RPO31],1.92 ± 0.057,2.12 ± 0.044,1.97 ± 0.058,2.07 ± 0.041
LVALLSRDLWCFSINDD [SSN2],2.1 ± 0.076,1.71 ± 0.08,2.5 ± 0.098,2.69 ± 0.098
SFEKLYEGMKLGNHAIT [YMR129W/POM152],2.85 ± 0.17,1.47 ± 0.27,1.85 ± 0.24,2 ± 0.15
SSDAFEKLKVNMEKEKD [YIL149C/MLP2],3.05 ± 0.071,3.19 ± 0.094,3.33 ± 0.057,3.23 ± 0.062
DLAFGGEANKHHWEDLQ [RPN5],3.09 ± 0.12,3.31 ± 0.16,3.07 ± 0.11,3.21 ± 0.091
REHERVILKQILQILDQ [SWP82],2.83 ± 0.077,2.86 ± 0.066,2.84 ± 0.063,2.8 ± 0.046
LISLKLLTFEVTQNVLG [SRB8],1.73 ± 0.078,1.46 ± 0.072,1.28 ± 0.25,1.69 ± 0.084
TQTGLLQDLEEAKSFQD [RPC82],2.27 ± 0.25,2.46 ± 0.12,2.13 ± 0.14,2.59 ± 0.11
WCCRSGSAADTQAIADI [PRE3],2.89 ± 0.12,3.03 ± 0.099,2.85 ± 0.11,2.93 ± 0.077
TELASKDNAIYNGFIDI [YCS4],1.42 ± 0.072,1.68 ± 0.071,1.09 ± 0.14,1.48 ± 0.05
VVRAASSLASQDVDFYK [RRP6],2.13 ± 0.066,2.04 ± 0.057,3.06 ± 0.16,1.48 ± 0.089
NLTYSSGLFVDVKKRTY [RPB2],2.31 ± 0.052,2.58 ± 0.051,2.4 ± 0.071,2 ± 0.031
TFSQESGLMVILYTSKI [RRI2],2.78 ± 0.076,3.05 ± 0.084,2.6 ± 0.085,2.94 ± 0.053
FWFDKLVTKILPLKKNE [YCG1],2.83 ± 0.21,3 ± 0.14,3.1 ± 0.15,2.43 ± 0.24
SSAADITMESVHEWEVS [PRP8],3.28 ± 0.062,3.32 ± 0.055,3.31 ± 0.048,3.29 ± 0.046
ECATCHGNLASCHGHFG [RPO31],2.9 ± 0.072,3.17 ± 0.12,2.92 ± 0.067,3.04 ± 0.056
PGGYFIVNGTEKVILVQ [RET1],1.63 ± 0.12,1.67 ± 0.1,1.28 ± 0.13,2.48 ± 0.13
LTKLNEDDLVGVVQMVT [TAF14],2.89 ± 0.086,3.18 ± 0.074,3.02 ± 0.065,2.98 ± 0.063
EAEFSLRELSCCINAAF [RRP46],2.63 ± 0.053,2.83 ± 0.064,2.76 ± 0.047,2.97 ± 0.056
LLTPDIGAVYSGMGPDY [PRE8],1.32 ± 0.055,1.72 ± 0.074,1.2 ± 0.1,1.52 ± 0.081
